According to the RNAGym collection of RNA variant scans (doi:10.1073/pnas.2313332121):
Variants at the floor of the assay were thinned out.

B1: TPR 5TU (parent)
chain: GGAUCUUCUCGAUCUAACAAAAAAGACAAAUCUGCCACAAAGCUUGAGAGCAUCUUCGGAUGCAGAGGCGGCAGCCUUCGGUGGCGCGAUAGCGCCAACGUUCUCAACUAUGACACGCAAAACGCGUGCUCCGUUGAAUGGAGUUUAUCAUG

Variants of: B1
Assay: polymerase ribozyme fitness, log enrichment relative to wild type (log ratio); higher = more active; in vitro selection for triplet polymerase activity
Outline: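 Only genotypes with ≥10 input reads and ≥1 read per output were kept after Illumina sequencing of input and output libraries. These libraries were PCR-built, transcribed mutants of each subunit of a heterodimeric triplet polymerase ribozyme, each put through one triplicate in vitro selection round with frozen incubation at −7 °C, gel excision of extended constructs, streptavidin-bead capture and RT-PCR. Fitness is a logarithmic ratio of genotype enrichment to wild-type enrichment, from inverse-variance-weighted replicate averages, with the logarithm in base 2.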

Variant	polymerase ribozyme fitness (log ratio)
G25U A41G	-0.833
C36U U146G	-3.6
G50U A52C C57A G58U A107G	≤ -4.2
G58U U61A U135A	-1.67
A37C A41C U56A G67C C85A G126A C131A G141A	≤ -4.2
G48C G59C U82G	0.0275
A37U G48C	-2.02
C27U A52C C85G C116G G128U A137G	≤ -4.2
C14A G59C C85A C99U G141U U146G	≤ -4.2
A16G	-0.642
C93U G126A	-0.311
U45C C57A G74C G80U U101A U139A G143C	≤ -4.2
C93U G126A U139C	-4.1
G46C C118G	-1.24
C14G U53A	-2.66
C5A U55A G58C G68U G81A A91U C96A	≤ -4.2
A41C G50A U55G U56A G65U G68A U102A G140U	≤ -4.2
A21C C57A C93G C99G C118U U139A U144A A150C	≤ -4.2
C54A C85G G124U	-3.78
G25C C99U C114G C118U	≤ -4.2
G84A A91G A122C	-3.61

Variant	polymerase ribozyme fitness (log ratio)
C36A C43G	≤ -4.2
C38U A97G	-0.0867
C35U A64G G81U G92A C93A A115U U134A U151G	≤ -4.2
C96U G136A	0.246
U56G C57U C96U	-0.884
U13G C18U C27U C95U	-3.43
C8A C76G G86U U109G G141U	≤ -4.2
C18U C32U A41G G48A G68C C87U G94U A107G C149A A150G	≤ -4.2
A17C A39G U44G C63A A73G A113G A121U G141A	≤ -4.2
A12U A22G C35U G58A A91C A98G C116G	-4.07
A3U C87A	-3.25
U15A G25U A60G G74A C75A A142U	≤ -4.2
C10U U13G C14A A28C C54U G92C A113U A122G C129U	≤ -4.2
C8A C96A A110U U111G	≤ -4.2
U31A C116U	-0.00779
A29C C63A C87U U101C A115C G117C G133A	≤ -4.2
U53C U139G	0.0757
A91U G140C	≤ -4.2
A39U A49U	-4.19
G81C G112A A137U U148A	≤ -4.2
C43G A97U C123U C125A U148G	≤ -4.2

Variant	polymerase ribozyme fitness (log ratio)
C69A U148A	-4.08
A22U G70U C87A A119U	≤ -4.2
A22U C35A A41C U53G C87U A97C C108U U151A	≤ -4.2
G59C G117A	1.39
C114U A142G	-2.95
C8A C57A G74A C118U	≤ -4.2
A39G G84A G136U	-4.02
U7C U13G A20C U31A C51U U53G C87G A89G C93U U139C A142U G143U G152A	≤ -4.2
U7C A113G U139C	≤ -4.2
A41U C54A G92A	≤ -4.2
G50C G74A U77G C93G U135A U139A	≤ -4.2
C96A C103A U135A U145A	-1.96
U31A C95G A119U	-1.25
C8G U15G A17G C18U A20C C32G A73G C93U C125U	≤ -4.2
A28G U55A G67U A89C C129A G140C	≤ -4.2
A26U A39U G94U A113U A119G U127C G152C	≤ -4.2
A40U C93A U148A	≤ -4.2
C10G A47C C54A U55A G58A C63U U82C C87G G100U A113C U134G	≤ -4.2
C5U A19G A21G A29G C87G C95G	≤ -4.2
A12U A17U C18U G46U C51U A52U C75A G84C G100U C105U C118G A120U U134A A137G	≤ -4.2
C10G U53A A150C	≤ -4.2

Variant	polymerase ribozyme fitness (log ratio)
U55A A97G	-0.39
C54A C132U	-2.3
A39G U56A G58U G141A	-1.28
C75G C76G G92C	≤ -4.2
A60U U61C	≤ -4.2
U56A U109C G141U	-2.56
A41U G74U C75A A91G U145A U151G	≤ -4.2
C132G G141C	-3.73
G46U G83C G92U	-2.34
U9G A24U C35U A60C G71A G128A G143U A150G	≤ -4.2
C51A U55G	-2.17
U9G C75G C76A C85G	≤ -4.2
C93U U104A	-1.88
C35U U77C G88A G124U	≤ -4.2
C57G C123G	-0.87
A26U U55A A60C	≤ -4.2
U90A A119U G126A	≤ -4.2
G58C C96U G128U	-3.69
C8A G86A C87U A138U	≤ -4.2
A29G A52C G74A G92U C95G	≤ -4.2
